Legend:
HEK 293T cells = test: Light-induced nuclear export, mCherry fluorescence imaging; assay type: cell-based, human
Procedure: FIG. 5: Induced nuclear export inhibits AcrIIA4 function. (A) Schematic of AcrIIA4 construct fused to mCherry-LEXY. LEXY, light-inducible nuclear export system; fusion polypeptide sequence is SEQ ID NO: 114 (encoded by SEQ ID NO: 74). (B) Fluorescence images of HEK 293T cells transfected with the construct in A. mCherry images were taken prior to induction (Preinduction), after 15 min of irradiation with blue light (Post Activation) and after an additional 20 min recovery phase in the absence of blue light (Post Recovery). (C) Line profile of the indicated cell in B, (D) Bar plot showing control of dCas9-VP64-mediated luciferase reporter activation by NLS-AcrIIA4-mCherry-LEXY. […]
To test whether sequestering AcrIIA4 away from the nucleus could be a possible mode for allosteric Acr control we employed a light-inducible nuclear export system (LEXY) previously reported (Niopek et al., 2016), which mediates the nuclear export of proteins fused to the LEXY domain (an AsLOV2-Nuclear Export Signal-Hybrid) in response to blue light. […] The nuclear mChcrry fluorescence fully recovered within 20 min when blue-light irradiation was stopped, showing that AcrIIA4 nuclear export was reversible (FIGS. 5B and Q.

dCas9-VP64 = molecular target: T1, dCas9-VP64 (Streptococcus pyogenes serotype M1, UniProt Q99ZW2, D10A/N863A); test: dCas9-VP64 luciferase reporter trans-activation assay; assay type: cell-based; conditions: HEK 293T
T1 construct: host or cells: HEK 293T
Procedure: HEK 293T cells were seeded into black, clear-bottom 96-well plates (Corning) at a density of ˜12.500 cells per well Twenty-four hours after seeding, cells were transfected according to the manufacturer's instructions using Lipofectamine® 2000 and Opti-MEM® reduced serum medium (Thermo Fisher). […]
(§1) Six h post-transfection, medium was replaced and the cells were illuminated with 460 nm pulsatile blue light (light intensity 2-3 W/m^2 as measured with a LI-COR LI-250A Light Meter, pulsatile illumination regime is indicated in figure legends) or kept in the dark under otherwise identical conditions for 32-42 h (indicated in figure legends). […] Subsequently, the luciferase activity was measured using the Dual-Glo luciferase assay kit (Promega) according to the manufacturer's protocol. In brief, the cells were lysed using the provided lysis buffer and tire activity of firefly and Renilla luciferase was quantified using a GLOMAX 96 Microplate Luminometer (Promega) with automated injectors (delay time 2 s, integration time 10 s). The relative luciferase activity was calculated by dividing the firefly luciferase photon counts by the Renilla luciferase photon counts. […]

SpyCas9 = molecular target: T2, SpyCas9 (Streptococcus pyogenes serotype M1, UniProt Q99ZW2); test: Cas9 luciferase reporter cleavage assay (dual luciferase); assay type: cell-based; conditions: HEK 293T, 48 h post-transfection; for effect on Cas9-caused firefly luciferase knockdown (Cas9 inhibition): with or without N-terminal SV40 NLS
T2 construct: 2A-GFP (C); host or cells: HEK 293T
Procedure: HEK 293T cells were seeded into black, clear-bottom 96-well plates (Corning) at a density of ˜12.500 cells per well Twenty-four hours after seeding, cells were transfected according to the manufacturer's instructions using Lipofectamine® 2000 and Opti-MEM® reduced serum medium (Thermo Fisher).
For the dCas9-VP64 trans-activation assays, 50 ng/well of each, a plasmid encoding dCas9-VP64_GFP (Addgene plasmid #61422, kind gift from Feng Zhang), a tet-inducible firefly luciferase reporter (Addgene plasmid #64127, kind gift from Moritoshi Sato) and a TetO-targeting guide RNA vector (Addgene plasmid #64161, kind gift from Moritoshi Sato) were co-transfected alongside 1 ng/well pRL-TK (TK-driven Renilla expression vector for normalization; Promega) as well as 1-50 ng/well of the AcrIIA4 constructs and, optionally, stuffer DMA (pcDNA3.1(−) (Invitrogen)). For the reporter cleavage assay, a plasmid encoding an H1 promoter-driven guideRNA as well as firefly luciferase and Renilla luciferase was co-transfected alongside Cas9 expression vector pSpCas9(BB)-2A-GFP (PX453; Addgene plasmid #48138, kind gift from Feng Zhang) as weft as the corresponding AcrIIA4 variant (50 ng/well each). […]
as §1

Cas9 = molecular target: T3, Cas9 (Streptococcus pyogenes serotype M1, UniProt Q99ZW2); test: T7 endonuclease assay, CFTR locus editing; assay type: cell-based; conditions: HEK 293T
T3 construct: expressed in transfected cells; host or cells: HEK 293T
Procedure: HEK 293T cells were seeded into transparent 96-well plates (Coming). […] Sixteen It post-transfection, cells were irradiated with blue light (7 s ON, 7 s OFF, 3 W/m^2) for 32 h or kept in the dark as control. Subsequently, cells were washed with PBS and lysed using the DirectPCR lysis reagent (PcqLab). A fragment spanning the edited part of the CFTR locus was PCR-amplified using Q5 polymerase and the following primers: CFTR_fw: 5′-[…]-3′, SEQ ID NO: 30; CFTR_re: 5′-[…]-3′, SEQ ID NO: 31). The PCR reaction was run on an agarose gel and the amplicon was purified using a QIAGEN Gel Extraction Kit. Two hundred ng of PCR diluted in 19.5 μl 1× NEB Buffer 2 were then healed up to 95° C. followed by re-annealing in a thermocycler. Next, 0.5 μl of T7 Endonuclease (NEB) were added, and the reaction was incubated at 37° C. for 15 min and then stopped by adding EDTA-containing gel loading dye. Lastly, T7 reactions were analyzed on a 2% agarose gel stained with GelRed (Biotium, Inc.).

Question: For “NLS-AcrIIA4-mCherry-LEXY: NLS-tagged AcrIIA4 fused to mCherry and light-inducible nuclear export system LEXY; SEQ ID NO: 114”, which “time to full recovery of nuclear mCherry fluorescence after blue-light irradiation was stopped” value (HEK 293T cells) is on record?
Answer: ≤ 20 min

Question: And the “nuclear mCherry fluorescence upon blue-light irradiation” value (HEK 293T cells; 15 min blue light)?
Answer: fast and strong decrease

Question: What about the “dCas9-VP64-mediated luciferase reporter induction upon light-induced nuclear export” value (dCas9-VP64; blue light vs dark, dose-dependent) of the same substance?
Answer: noticeable increase

Question: For cMyc^PIA NLS-mCherry-AcrIIA4, which “AcrIIA4 activity due to nuclear targeting (dCas9-VP64 inhibition)” value (dCas9-VP64; 48 h post-transfection) is on record?
Answer: boost in AcrIIA4 activity

Question: Which “Cas9 inhibition in the absence of blue light” value (SpyCas9; LOV2 insertion screen at 41 positions) does the source give for “construct 1: LOV2 inserted between AcrIIA4 residues E66/Y67, no linkers; SEQ ID NO: 88” here?
Answer: highest

Question: What about the “Cas9 inhibition in the dark (CFTR locus editing)” value (Cas9; Cas9:AcrIIA4 construct 1:1, dark) of the same substance?
Answer: no significant

Question: What about the “light-dependent Cas9 inhibition (CFTR locus editing light vs dark)” value (Cas9; Cas9:AcrIIA4 construct 1:4, blue light 32 h or dark) of the same substance?
Answer: inhibited Cas9 in a light-dependent manner

Question: What about the “Cas9 block in the dark (CFTR editing in dark sample)” value (Cas9; Cas9:AcrIIA4 construct 1:4, dark) of the same substance?
Answer: did not fully block Cas9

Question: With “AcrIIA4: anti-CRISPR polypeptide of a Listeria monocytogenes prophage, SEQ ID NO: 1 [reference compound]” as the substance, how does the “effect on Cas9-caused firefly luciferase knockdown (Cas9 inhibition)” value (SpyCas9) read?
Answer: strongly reduced

Question: With “SV40 NLS-AcrIIA4: N-terminal SV40 NLS fusion to AcrIIA4; SEQ ID NO: 115” as the substance, how does the “effect on Cas9-caused firefly luciferase knockdown (Cas9 inhibition)” value (SpyCas9) read?
Answer: full recovery of the luciferase reporter signal
